Substitutions are numbered along the chain they refer to. Names and notes keep the numbering of the source. One block for each binder: values may come before it.
What was measured:
[1] = target: T1, human IL-6 (human, UniProt P05231 30-212); assay: yeast Fab display; biotinylated IL-6 remaining after overnight competition with 2 uM IL-6
T1 construct: L19, R24 and D34 fit a start at residue 29 of the precursor; also called free IL-6; biotinylated human IL-6

[2] = target: T1, human IL-6; assay: yeast system; format in the assay not stated
[3] = target: T1, human IL-6; assay: cell-based or functional assay
[4] = target: hyper IL-6; assay: cell-based or functional assay
[5] = target: T2, IL-6R on HEK-Blue IL6 reporter cells (UniProt P08887 20-468, limits assumed); assay: cell-based or functional assay
T2 sequence (looked up): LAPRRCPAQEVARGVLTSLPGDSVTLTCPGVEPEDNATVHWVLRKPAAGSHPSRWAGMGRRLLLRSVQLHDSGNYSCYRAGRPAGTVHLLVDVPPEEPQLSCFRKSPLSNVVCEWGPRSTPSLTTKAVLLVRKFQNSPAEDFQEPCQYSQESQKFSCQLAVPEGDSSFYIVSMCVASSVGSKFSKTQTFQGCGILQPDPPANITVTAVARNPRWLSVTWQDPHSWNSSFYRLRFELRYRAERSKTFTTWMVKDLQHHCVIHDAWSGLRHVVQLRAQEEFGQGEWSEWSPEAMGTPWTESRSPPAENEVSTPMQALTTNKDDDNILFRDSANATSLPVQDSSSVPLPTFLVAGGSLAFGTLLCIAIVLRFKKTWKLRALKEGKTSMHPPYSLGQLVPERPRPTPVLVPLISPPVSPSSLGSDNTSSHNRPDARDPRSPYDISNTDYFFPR

[6] = target: T1, human IL-6; assay: ELISA on plates coated with human IL-6, hybridoma supernatants

B1: EBI-029 Fab I51T/S55G (Fab, V domains shown)
VH: QVQLVQSGAEVKKPGSSVKVSCKASGYALSNYLIEWVRQAPGQGLEWMGVTTPGGGTINYAQKFQGRVTITADESTSTAYMELSSLRSEDTAVYYCARSRWDPLYYYALEYWGQGTTVTVSS
VL: DIVMTQSPDSLAVSLGERATINCRASESVDNYGIPFMNWYQQKPGQPPKLLIYAASNRGSGVPDRFSGSGSGTDFTLTISSLQAEDVAVYYCQQSEEVPLTFGQGTKLEIKR
notes: The mutations were introduced into the wild-type EBI-029 Fab; also called 151T/S55G
- binding result [1]: binds

B5: EBI-030 IgG2 (antibody)
heavy: QVQLVQSGAEVKKPGSSVKVSCKASGYVLPNYLIEWVRQAPGQGLEWMGVTTPGGGTINYAQKFQGRVTITADESTSTAYMELSSLRSEDTAVYYCARSRWDPLYYYALEYWGQGTTVTVSSASTKGPSVFPLAPCSRSTSESTAALGCLVKDYFPEPVTVSWNSGALTSGVHTFPAVLQSSGLYSLSSVVTVPSSNFGTQTYTCNVDHKPSNTKVDKTVERKCCVECPPCPAPPVAGPSVFLFPPKPKDTLMISRTPEVTCVVVDVSHEDPEVQFNWYVDGVEVHNAKTKPREEQFNSTFRVVSVLTVVHQDWLNGKEYKCKVSNKGLPAPIEKTISKTKGQPREPQVYTLPPSREEMTKNQVSLTCLVKGFYPSDIAVEWESNGQPENNYKTTPPMLDSDGSFFLYSKLTVDKSRWQQGNVFSCSVMHEALHNHYTQKSLSLSPGK
light: DIVMTQSPDSLAVSLGERATINCRASESVDNYGIPFMNWYQQKPGQPPKLLIYAASNRGSGVPDRFSGSGSGTDFTLTISSLQAEDVAVYYCQQSEEVPLTFGQGTKLEIKRTVAAPSVFIFPPSDEQLKSGTASVVCLLNNFYPREAKVQWKVDNALQSGNSQESVTEQDSKDSTYSLSSTLTLSKADYEKHKVYACEVTHQGLSSPVTKSFNRGEC
- IC50 fold less than that of EBI-029, HEK-Blue IL6 cells [3]: > 50 fold
- IC90 fold less than that of EBI-029, HEK-Blue IL6 cells [3]: ~4000 fold
- fold decrease in IC50 against EBI-029, HEK-Blue IL6 cells, 20 pM IL-6 [3]: ~50 fold
- fold decrease in IC90 against EBI-029, HEK-Blue IL6 cells, 20 pM IL-6 [3]: > 100 fold

B6: EBI-031 (antibody, human IgG2, kappa)
heavy: B5 heavy with H311A
light: B5 light
- IC50, cis-signaling, HEK-Blue IL6 cells, 20 pM free IL-6 [3]: 14.2 pM
- IC50 fold less than that of EBI-029, HEK-Blue IL6 cells [3]: > 75 fold
- IC90 fold less than that of EBI-029, HEK-Blue IL6 cells [3]: ~350 fold
- fold decrease in IC50 against EBI-029, HEK-Blue IL6 cells, 20 pM IL-6 [3]: ~50 fold
- fold decrease in IC90 against EBI-029, HEK-Blue IL6 cells, 20 pM IL-6 [3]: > 100 fold
- fold greater potency than tocilizumab, cis-signaling, HEK-Blue IL6 cells [3]: > 900 fold
- IC50, trans-signaling, HEK-Blue IL6 cells, 200 pM hyper IL-6 [4]: 32 pM
- fold more potent than tocilizumab, cellular assays [4]: > 900 fold

B7: Tocilizumab (antibody, human IgG1, kappa, V domains shown)
VH: QVQLQESGPGLVRPSQTLSLTCTVSGYSITSDHAWSWVRQPPGRGLEWIGYISYSGITTYNPSLKSRVTMLRDTSKNQFSLRLSSVTAADTAVYYCARSLARTTAMDYWGQGSLVTVSS
VL: DIQMTQSPSSLSASVGDRVTITCRASQDISSYLNWYQQKPGKAPKLLIYYTSRLHSGVPSRFSGSGSGTDFTFTISSLQPEDIATYYCQQGNTLPYTFGQGTKVEIKR
- IC50, cis-signaling, HEK-Blue IL6 cells, 20 pM free IL-6 [5]: 12.9 nM

Further lines, results first:

- Kd [2]: 0.343 nM
B2: h64 IgG (antibody, V domains shown)
VH: B1 VH with L29F, T51I, G55S
VL: DIVMTQSPDSLAVSLGERATINCRASESVDNYGISFMNWYQQKPGQPPKLLIYAASNQGSGVPDRFSGSGSGTDFTLTISSLQAEDVAVYYCQQSKEVPLTFGQGTKLEIK
notes: Expressed as inline fusions with the human IgG1 constant domains; also called original h64 antibody; the original humanized molecule

- binding result [1]: binds
B3: EBI-029 Fab S30P/I51T/S55G (Fab, V domains shown)
VH: B1 VH with S30P
VL: B1 VL

- binding result [1]: binds
B4: EBI-029 Fab A28V/I51T/S55G (Fab, V domains shown)
VH: B1 VH with A28V
VL: B1 VL

- binding result [6]: binds
B8: murine 64 antibody (antibody, V domains shown)
VH: QVQLQQSGAELVRPGTSVKVSCKASGYAFSNYLIEWVKQRPGQGLEWIGVITPGSGTINYNEKFKGKAVLTADKSSSTVYMQLSSLTSDDSAVYFCAKSRWDPLYYYALEYWGQGTSVTVSS
VL: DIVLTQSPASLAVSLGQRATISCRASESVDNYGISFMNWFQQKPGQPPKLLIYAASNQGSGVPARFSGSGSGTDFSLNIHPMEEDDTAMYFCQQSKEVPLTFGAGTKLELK
notes: Murine monoclonal from a hybridoma; also called Hybridoma 64; m64
